# Results: patent US20190233493A1 (Sanofi, published 2019)
# *1 amine or outer side, *2 acyl side, *3 side chain or, on linkers, in order; H or OH if unused. Primed or numbered codes have the meaning given here. Side-chain parts run from the residue outwards. [ ]: non-standard residue; d: D form. The star is where a group is joined. PEG12 = NCCOCCOCCOCCOCCOCCOCCOCCOCCOCCOCCOCCOCCC(=O)O; γGlu = O=C(O)[C@H](CCC(=O)[*:2])N[*:1]; 1Nal = N[C@@H](Cc1cccc2ccccc12)C(=O)O; Stearoyl = CCCCCCCCCCCCCCCCCC(=O)*; Palmitoyl = CCCCCCCCCCCCCCCC(=O)*; Nle = CCCC[C@H](N)C(=O)O; PEG2′ = PEG2 spacer unit; PEG2″ = not defined here; Aib = CC(C)(N)C(=O)O
# T1: RXFP1 receptor (UniProt Q9HBX9 1-757, limits assumed)
# T1 sequence (looked up): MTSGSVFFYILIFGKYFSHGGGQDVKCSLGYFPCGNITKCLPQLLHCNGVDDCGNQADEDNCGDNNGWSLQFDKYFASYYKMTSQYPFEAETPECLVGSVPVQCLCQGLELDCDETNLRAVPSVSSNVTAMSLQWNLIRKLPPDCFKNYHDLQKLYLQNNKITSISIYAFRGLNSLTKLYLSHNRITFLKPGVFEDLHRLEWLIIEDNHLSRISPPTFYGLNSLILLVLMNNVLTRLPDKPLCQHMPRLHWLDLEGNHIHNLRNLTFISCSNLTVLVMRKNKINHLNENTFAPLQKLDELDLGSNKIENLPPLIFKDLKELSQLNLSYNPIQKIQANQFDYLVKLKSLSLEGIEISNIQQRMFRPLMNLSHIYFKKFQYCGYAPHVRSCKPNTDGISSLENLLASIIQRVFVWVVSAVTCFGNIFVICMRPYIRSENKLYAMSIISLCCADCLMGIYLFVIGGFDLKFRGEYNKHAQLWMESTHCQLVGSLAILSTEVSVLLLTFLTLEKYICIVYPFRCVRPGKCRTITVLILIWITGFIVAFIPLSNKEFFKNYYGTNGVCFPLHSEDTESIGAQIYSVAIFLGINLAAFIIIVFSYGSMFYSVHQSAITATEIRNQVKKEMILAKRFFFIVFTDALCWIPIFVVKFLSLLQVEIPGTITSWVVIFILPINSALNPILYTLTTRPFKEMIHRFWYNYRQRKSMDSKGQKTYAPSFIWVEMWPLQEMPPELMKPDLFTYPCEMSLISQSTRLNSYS
# B1: peptide of SEQ ID NO: 97 (peptide)
# peptide: Ac-LEGREKVRAQI[Aib][Aib]EG[Nle]STWS[Aib]RKKK([PEG12-γGlu-γGlu-γGlu-Stearoyl])-NH2
# SMILES: CCCCCCCCCCCCCCCCCC(=O)N[C@@H](CCC(=O)N[C@@H](CCC(=O)N[C@@H](CCC(=O)NCCOCCOCCOCCOCCOCCOCCOCCOCCOCCOCCOCCOCCC(=O)NCCCC[C@H](NC(=O)[C@H](CCCCN)NC(=O)[C@H](CCCCN)NC(=O)[C@H](CCCNC(=N)N)NC(=O)C(C)(C)NC(=O)[C@H](CO)NC(=O)[C@H](Cc1c[nH]c2ccccc12)NC(=O)[C@@H](NC(=O)[C@H](CO)NC(=O)[C@H](CCCC)NC(=O)CNC(=O)[C@H](CCC(=O)O)NC(=O)C(C)(C)NC(=O)C(C)(C)NC(=O)[C@@H](NC(=O)[C@H](CCC(N)=O)NC(=O)[C@H](C)NC(=O)[C@H](CCCNC(=N)N)NC(=O)[C@@H](NC(=O)[C@H](CCCCN)NC(=O)[C@H](CCC(=O)O)NC(=O)[C@H](CCCNC(=N)N)NC(=O)CNC(=O)[C@H](CCC(=O)O)NC(=O)[C@H](CC(C)C)NC(C)=O)C(C)C)[C@@H](C)CC)[C@@H](C)O)C(N)=O)C(=O)O)C(=O)O)C(=O)O
# B2: peptide of SEQ ID NO: 111 (peptide)
# peptide: LEGREKVRAXIXXEGQSTWSXRKKX
# modifications: Ac-L-E-G-R-E-K-V-R-A-K(Ac)-I-Aib-Aib-E-G-Q-S-T-W-S-Aib-R-K-K-K(PEG2-PEG2-PEG2-gE-gE-gE-gE-gE-Stea)-NH2
# Target: T1, RXFP1 receptor
# Experiment: cell-based or functional assay
Binder,"EC50 (nM), OVCAR 5 cells (cAMP)","EMax, OVCAR 5 cells (cAMP)"
Ac-LEGREKVRAQI[Aib][Aib]EG[Nle]STWS[Aib]RK[PEG2′]K([PEG2′-γGlu-γGlu-γGlu-Palmitoyl])-NH2 [peptide of SEQ ID NO: 12],26.7 nM,76%
Ac-LEGREKVRAQI[Aib][Aib]EG[Nle]STWS[Aib]RKKK[PEG2″][PEG2″][PEG2″][γGlu][γGlu][γGlu]K([γGlu-Palmitoyl])-NH2 [peptide of SEQ ID NO: 107],0.63 nM,85%
Ac-LEGREKVRAK(Ac)I[Aib][Aib]EG[Nle]ST[1Nal]S[Aib]RKKK([PEG2″-PEG2″-γGlu-γGlu-γGlu-PEG2″-γGlu-Stearoyl])-NH2 [peptide of SEQ ID NO: 103],0.09 nM,79%
B1,4.92 nM,98%
Ac-LEGREKVRAK(Ac)I[Aib][Aib]EG[Nle]STWS[Aib]RKK(Ac)[PEG2″][PEG2″][PEG2″]K([γGlu-γGlu-γGlu-Palmitoyl])-NH2 [peptide of SEQ ID NO: 114],1.34 nM,90%
Ac-LEGREKVRAK(Ac)I[Aib][Aib]EGQSTWS[Aib]RKK(Ac)K([PEG2″-PEG2″-PEG2″-γGlu-γGlu-γGlu-Stearoyl])-NH2 [peptide of SEQ ID NO: 113],0.53 nM,89%
Ac-LEGREKVRAK(Ac)I[Aib][Aib]EGQSTWS[Aib]RKKK([PEG2′-PEG2′-PEG2′-γGlu-γGlu-γGlu-γGlu-Stearoyl])-NH2 [peptide of SEQ ID NO: 115],0.17 nM,93%
B2,0.21 nM,92%
Ac-LEGREKVRAQI[Aib][Aib]EG[Nle]STWS[Aib]RKKK([PEG2′-PEG2′-γGlu-γGlu-PEG2′-γGlu-Stearoyl])-NH2 [peptide of SEQ ID NO: 99],0.01 nM,87%
Ac-LEGREKVRAQI[Aib][Aib]EG[Nle]STWS[Aib]RKKK([PEG2′-PEG2′-γGlu-γGlu-γGlu-PEG2′-Stearoyl])-NH2 [peptide of SEQ ID NO: 98],0.74 nM,99%
Ac-LEGREKVRAQI[Aib][Aib]EG[Nle]STWS[Aib]RKKK([γGlu-γGlu-PEG2″-PEG2″-γGlu-Stearoyl])-NH2 [peptide of SEQ ID NO: 105],0.03 nM,88%
Ac-LEGREKVRAQI[Aib][Aib]EG[Nle]STWS[Aib]RKK([PEG2″-PEG2″-γGlu-γGlu-PEG2″-γGlu-Stearoyl])-NH2 [peptide of SEQ ID NO: 100],0.16 nM,90%
Ac-LEGREKVRAQI[Aib][Aib]EG[Nle]STWS[Aib]RKK([γGlu-γGlu-PEG2″-PEG2″-γGlu-Stearoyl])-NH2 [peptide of SEQ ID NO: 104],0.16 nM,89%
Ac-LEGREKVRAQI[Aib][Aib]EG[Nle]STWS[Aib]RKKK[PEG2″][PEG2″][PEG2″][γGlu][γGlu]K([γGlu-Palmitoyl])-NH2 [peptide of SEQ ID NO: 109],0.15 nM,98%
Ac-LEGREKVRAK(Ac)I[Aib][Aib]EG[Nle]STWS[Aib]RKK(Ac)K([PEG2″-PEG2″-γGlu-γGlu-PEG2″-γGlu-Stearoyl])-NH2 [peptide of SEQ ID NO: 101],0.16 nM,86%
Ac-LEGREKVRAQI[Aib][Aib]EG[Nle]STWS[Aib]RKKK[PEG2″][PEG2″][PEG2″][PEG2″][γGlu][γGlu][γGlu]K([γGlu-Palmitoyl])-NH2 [peptide of SEQ ID NO: 108],0.15 nM,94%
Ac-LEGREKVRAQI[Aib][Aib]EG[Nle]STWS[Aib]RKK[PEG2″][PEG2″][PEG2″][γGlu][γGlu][γGlu]K([γGlu-Palmitoyl])-NH2 [peptide of SEQ ID NO: 110],0.17 nM,80%
Ac-LEGREKVRAK(Ac)I[Aib][Aib]EG[Nle]STWS[Aib]RKKK([PEG2″-PEG2″-γGlu-γGlu-γGlu-PEG2″-γGlu-Stearoyl])-NH2 [peptide of SEQ ID NO: 102],0.08 nM,80%
Ac-LEGREKVRAK(Ac)I[Aib][Aib]EG[Nle]STFS[Aib]RKK(Ac)K([PEG2″-PEG2″-PEG2″-γGlu-γGlu-γGlu-Stearoyl])-NH2 [peptide of SEQ ID NO: 112],0.32 nM,88%
Ac-LEGREKVRAQI[Aib][Aib]EG[Nle]STWS[Aib]RK[PEG2″][PEG2″]K([γGlu-γGlu-γGlu-Palmitoyl])-NH2 [peptide of SEQ ID NO: 11],14.7 nM,89%
Ac-LEGREKVRAQI[Aib][Aib]EG[Nle]STWS[Aib]RKKK([γGlu-γGlu-PEG2″-PEG2″-PEG2″-γGlu-Stearoyl])-NH2 [peptide of SEQ ID NO: 106],0.34 nM,93%
